We go through two molecules from patent publication US20240425593A1 (SICHUAN KELUN BIOTECH BIOPHARMACEUTICAL, published 2024).

Like-named read-outs stand apart in the source and are kept apart here.

Experiment [1] has as its target PD-1 on Jurkat-PD-1-NFAT cells (UniProt Q15116 25-288, limits assumed). As to the kind of experiment: cell-based or functional assay.
In the next experiment the target is T1, human ICOS (human, UniProt Q9Y6W8 21-140, limits assumed).
T1 construct: Bought
T1 sequence (looked up): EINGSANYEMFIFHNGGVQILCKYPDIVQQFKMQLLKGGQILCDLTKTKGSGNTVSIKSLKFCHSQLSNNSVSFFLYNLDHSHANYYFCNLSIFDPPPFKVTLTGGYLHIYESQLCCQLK
As to the kind of experiment: ELISA, coated antigen 1 µg/mL. The procedure:
(§1) After washing, a goat anti-human IgG secondary antibody labeled with horseradish peroxidase diluted in phosphate buffer (PBS) containing 2% BSA in a ratio of 1:15000 was added, followed by incubating at 37° C. for 1 hour. After washing, the TMB chromogen solution was used for developing, and the absorbance value was read using a microplate reader at 450 nm. The data were imported into Graphprism to calculate EC₅₀ values.
A general note: An ELISA detects its analyte on a solid surface through an enzyme-linked reagent.

The next experiment deals with T2, human PD-1-ECD-mFc (human; mouse, UniProt Q15116 25-170).
T2 construct: extracellular domain; Made in HEK293F cells; also called human PD-1-mFc; PD-1-mFc; not shown: mouse Fc (mFc) amino acids, AB097847.1
As to the kind of experiment: ELISA, coated human PD-1-mFc.

A further experiment addresses T3, monkey PD-1-hFc (monkey).
T3 construct: Extracellular domain of monkey PD-1 fused to an hFc tag, made in house; not shown: The hFc tag and any linker
T3 chain: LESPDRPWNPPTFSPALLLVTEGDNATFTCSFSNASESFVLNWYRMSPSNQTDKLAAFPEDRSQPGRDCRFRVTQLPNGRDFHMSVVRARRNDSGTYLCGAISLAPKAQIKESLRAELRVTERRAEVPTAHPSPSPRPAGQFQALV
As to the kind of experiment: ELISA, coated monkey PD-1-hFc. The procedure:
The specific experimental steps were as follows: human PD-1-hFc and monkey PD-1-hFc antigens were diluted to 1 μg/mL with CBS solution, then coated on a 96-well ELISA plate (purchased from Guangzhou Jiete Bio) at 4° C. overnight. […] After washing, a goat anti-human secondary antibody (FC) labeled with horseradish peroxidase diluted in phosphate buffer (PBS) containing 2% BSA in a ratio of 1:15000 was added, followed by incubating at 37° C. for 1 hour. After washing, the TMB chromogen solution was used for developing, and the absorbance value was read using a microplate reader at 450 nm, and the data were imported into Graphprism to calculate EC₅₀ values.

The target in experiment [2] is T4, full-length human PD-1 on CHO-hPD-1 cells (human, UniProt Q15116 25-288).
T4 construct: whole, on cells; also called PD-1 on the cell membrane surface of CHO-hPD-1
As to the kind of experiment: flow cytometry, FITC-labelled antibody on CHO-hPD-1 cells. In general terms: A flow cytometer gives signals particle by particle.

Experiment [3] concerns the target T4, full-length human PD-1 on CHO-hPD-1 …. As to the kind of experiment: competitive FACS on CHO-hPD-1 cells, competitor PD-L1-mFc-Bio. The text has this: (§2) The data were imported into Graphprism to calculate IC₅₀ values.
The target in the next experiment is T5, FcRn protein (UniProt P55899 24-297; P61769 21-119).
T5 construct: Immobilised on an SA biosensor
As to the kind of experiment: BLI (Octet ForteBio), FcRn on SA biosensor, antibody in PBST pH6.0. From the text: The antibody Fc can bind to FcRn so that it cannot be easily cleared in vivo, thus prolonging the half-life in vivo.
(In general: BLI is a label-free optical method that tracks binding on a fibre tip over time.)

The target of experiment [4] is T4, full-length human PD-1 on CHO-hPD-1 …. As to the kind of experiment: flow cytometry on CHO-hPD-1 cells with FITC-labeled antibody.
The target in a further experiment is T6, human PD-1-His (human, UniProt Q15116 25-170).
T6 construct: extracellular domain; not shown: His tag
As to the kind of experiment: BLI (Octet ForteBio), antibody on ProA biosensor, PD-1-His in solution.

For a further experiment, the target named is T7, human BTLA-his (human, UniProt Q7Z6A9 31-157, limits assumed).
T7 construct: Bought; not shown: His tag
As to the kind of experiment: ELISA on coated human BTLA-his, HRP goat anti-human IgG detection. The procedure:
as §1

The next experiment deals with T8, human PD-L1-his (human, UniProt Q9NZQ7 19-239, limits assumed).
T8 construct: Bought; not shown: His tag
As to the kind of experiment: ELISA on coated human PD-L1-his, HRP goat anti-human IgG detection. The procedure:
as §1

For experiment [5], the target named is T9, CD64 protein (UniProt P12314 16-288, limits assumed).
T9 construct: also called FcγRI
As to the kind of experiment: BLI (Octet ForteBio), CD64 immobilised on an SA biosensor, antibody in solution.

Experiment [6] concerns the target T4, full-length human PD-1 on CHO-hPD-1 …. As to the kind of experiment: competitive flow cytometry on CHO-hPD-1 cells; blocked ligand PD-L1 (PD-L1-mFc-Bio).
Excerpt: as §2

Experiment [7] addresses T9, CD64 protein. As to the kind of experiment: BLI (Octet ForteBio), CD64 immobilised on an SA biosensor, antibody in solution. This is another data set of the same source.

B1: 35E6-HZ1-IgG1-1D (antibody)
heavy: QVQLQESGPGLVKPSETLSLTCTVSGYSITSDYWSWIRQPPGKGLEWIGYINYDGDNNYNPSLKSRVTISRDTSKNQFSLKLSSVTAADTAVYYCARGGFDYWGQGTLVTVSSASTKGPSVFPLAPSSKSTSGGTAALGCLVKDYFPEPVTVSWNSGALTSGVHTFPAVLQSSGLYSLSSVVTVPSSSLGTQTYICNVNHKPSNTKVDKRVEPKSCDKTHTCPPCPAPEAAGGPSVFLFPPKPKDTLMISRTPEVTCVVVAVSHEDPEVKFNWYVDGVEVHNAKTKPREEQYNSTYRVVSVLTVLHQDWLNGKEYKCKVSNKALPAPIEKTISKAKGQPREPQVYTLPPSREEMTKNQVSLTCLVKGFYPSDIAVEWESNGQPENNYKTTPPVLDSDGSFFLYSKLTVDKSRWQQGNVFSCSVMHEALHAHYTQKSLSLSPGK
light: EIVLTQSPATLSLSPGERATLSCRASESVEYYGTNLMQWYQQKPGQPPRLLIYFASNVASGIPARFSGSGSGTDFTLTISSLEPEDFAVYFCQQSKKVPSTFGQGTKVEIKRTVAAPSVFIFPPSDEQLKSGTASVVCLLNNFYPREAKVQWKVDNALQSGNSQESVTEQDSKDSTYSLSSTLTLSKADYEKHKVYACEVTHQGLSSPVTKSFNRGEC
notes: also called IgG1-1D mutant anti-PD-1 humanized antibody
For the molecule B1, in experiment [1], the “EC50 by the PD-1/PD-L1 luciferase reporter system” value was 2.81 nM. Besides, the binding result with human ICOS was “no binding (tested: 10 µg/mL and 1 µg/mL)”; in the experiment with human BTLA-his it was “no binding (tested: 10 ug/mL)”; in the experiment with human PD-L1-his, “no binding (tested: 10 ug/mL)”; with CD64 protein [5], “no binding”. Moreover, the figures for the concentration for a half-maximal effect (EC50) (in the experiment with human PD-1-ECD-mFc; with monkey PD-1-hFc; in [2]) were 0.121 nM, 0.309 nM and 0.078 nM, respectively. Moreover, the IC50 in experiment [3] was found to be 0.818 ng/mL. Besides, the Kd was 7.89 nM with FcRn protein and 1.32 nM with human PD-1-His. For the same molecule, the koff with FcRn protein stood at 0.00746 s⁻¹; with human PD-1-His, 0.000306 s⁻¹. For the same molecule, the kon in the experiment with FcRn protein came out at 946000 M⁻¹ s⁻¹; in the experiment with human PD-1-His, 333000 M⁻¹ s⁻¹. Besides, in [4], the “EC50 (read off the curve)” value is around 10 ng/mL. Moreover, the “IC50 (read off the curve)” value in experiment [6] is around 100 ng/mL.

B2: 91D5-HZ2-IgG1-1D (antibody)
heavy: EVQLVQSGAEVKKPGASVKVSCKASGYTFTDYYMNWVREAPGQGLEWMGEINPKYGDTTYNQKFKDRATLTVDKSTSTAYMELSSLRSDDTAVYYCAKGIRLFDSWGQGTLVTVSSASTKGPSVFPLAPSSKSTSGGTAALGCLVKDYFPEPVTVSWNSGALTSGVHTFPAVLQSSGLYSLSSVVTVPSSSLGTQTYICNVNHKPSNTKVDKRVEPKSCDKTHTCPPCPAPEAAGGPSVFLFPPKPKDTLMISRTPEVTCVVVAVSHEDPEVKFNWYVDGVEVHNAKTKPREEQYNSTYRVVSVLTVLHQDWLNGKEYKCKVSNKALPAPIEKTISKAKGQPREPQVYTLPPSREEMTKNQVSLTCLVKGFYPSDIAVEWESNGQPENNYKTTPPVLDSDGSFFLYSKLTVDKSRWQQGNVFSCSVMHEALHAHYTQKSLSLSPGK
light: DIQLTQSPSSLSASVGDRVTITCRPSGNVHNYFAWYQQKPGKSPKLLVYNAKTLAEGVPSRFSGSGSGTDYTLTISSLQPEDFATYYCHHYYTAPFTFGGGTKVEIKRTVAAPSVFIFPPSDEQLKSGTASVVCLLNNFYPREAKVQWKVDNALQSGNSQESVTEQDSKDSTYSLSSTLTLSKADYEKHKVYACEVTHQGLSSPVTKSFNRGEC
notes: as for B1
Consider B2, for which the “EC50 by the PD-1/PD-L1 luciferase reporter system” value in experiment [1] worked out at 3.48 nM. Besides, the binding result with human ICOS was “no binding (tested: 10 µg/mL and 1 µg/mL)”; in the experiment with human BTLA-his it was “no binding (tested: 10 ug/mL)”; in the experiment with human PD-L1-his it was “no binding (tested: 10 ug/mL)”; with CD64 protein [7], “no binding”. For the same molecule, the values for the EC50 (in the experiment with human PD-1-ECD-mFc; in the experiment with monkey PD-1-hFc; in experiment [2]) were 0.104 nM, 0.25 nM and 0.093 nM, respectively. Also, the IC50 in experiment [3] is 1.32 ng/mL. For the same molecule, the figures for the Kd with FcRn protein and in the experiment with human PD-1-His were 5.33 nM and 1.17 nM, respectively. For the same molecule, the values for the koff in the experiment with FcRn protein and with human PD-1-His were 0.00725 s⁻¹ and 0.00023 s⁻¹, respectively. In addition, the kon with FcRn protein is 1.36e+06 M⁻¹ s⁻¹; with human PD-1-His, 384000 M⁻¹ s⁻¹. Further, the concentration giving a half-maximal response (EC50 (read off the curve)) in experiment [4] was around 10 ng/mL. Further, the “IC50 (read off the curve)” value in experiment [6] was around 200 ng/mL.

Usually EC50 stands for the concentration needed to bring the measured effect to its halfway point. Usually IC50 stands for the point on the concentration scale where inhibition reaches its midpoint. The Kd is the equilibrium constant for the complex coming apart. In general, koff refers to the first-order rate constant of dissociation. As usually defined, the kon is the second-order rate constant of association. One may read the EC50 (read off the curve) as the concentration at which the effect is half-maximal.
